Test: soluble on expression in E. coli; label from the status in PepcDB or PDB records

Row | Sequence | soluble on expression in E. coli
1 | MSAVSYSMHRTTTTTSSSSHGGVSAGHAAEEFVASAEREKQEMQQLNSRLEVYISRVRQLEDRNKELVIELDTLRGSLGNDIGQIKFKFNDSLVKVRREISEAHSGTIGVEVKVDRLRDDLNDYRHRYEEARREVEREKTTWGGAISQAQAELDTNKSRYAAILDEEKRLYAEQDQLYLQLAAAKDELDAAIVDRRRLQAEEDDLKIELEFLGRIHSQEITELRTLLAQAPADTREFFKNELALAIREIKAEYDKIIQTTRVDLETIFQSKISAVESSIVSKNEAAVFRQEEIRKMNESITTLRAKLSELEARNSALEREANTLQIQLGEDQRAYESELHKRDNALRFMREDCQTLIAELQALLNTKQTLDTEIAIYRKLVESEEGRFTHVGQGVVVAQQETTRLVPVEQDHWDSGEVQTRSSFKRHAKGNVSIVECDPQGKYIILENTSGSVAEDVSNFEIRRVIDGVQAFVFRLPSHLVIQQHGHLKIYGRNSGGINSPPDSIVMESHPSWGQGGQVETFLYNSHGIEKASHIQTTVASSR | not soluble
2 | MSLGIIRSILDTDLYKFTTGYAYAKLFPRAYGEFRFIDRNRQGFTEEFAELVRGEIRAMAALSLTRDEKEFLQRELPYLPPIYIDFLDGFRFDPEEVTVSIDAQGHLDIRAQGLLYRVTLWETPILAVISELYYRFIGAKPDWKQVEEVTRSKGELMREHRTTFSIFGMRRRFSLEVEDRVTDILKQYAGESLFGTSNVHLAHKHGLRVSGTHPHEWIQFHGAIYGYKMANYVAMEDWINVYDGDLGTVLTDTYTTDVFMRNFSKKHAMLFTSLRHDSGDPEIFIEKAVRRYEELRVDPKIKYIIFSDSLTPQRAIEIQKLCAGRIKASFGIGTNLTNDVGGGVEPLNIVMKLWKCKMTAKDDWHYCVKLSDVDGKHTGEPEEILLAMNTLGIKPKEGHHHHHH | soluble
3 | MENLASPPDISFVIAAYNAADTIEAAVQSALDQRGVTLEVIVVDDRSADDTITFVEAIAAIDPRVRLLALEENRGPGGARNAGIEAATGRWIAVLDSDDVIRPERSACMMCRAEAANAAVAVDNLDVVYTDGRPMETMFPEEFLEERAVLTLEDFISSNILFRSTFNFGYMKPMFRRDFLNNEGLRFREDIRIGEDYILLASALAAGGLCVIEPKPGYIYNIREGSISRVLELHHVEAMMRADQEFLSHYTLLPAAMDAQQARARSLQLAHNFLTLVENIKRRSVLGALKTTIRDPAVLGHLRMPIAVRLRRLRDAMFAPAAKIQGLEHHHHHH | soluble
4 | MPASQIKSAVTSPLLPQSPSLFEKYPRPHKKLKQLHWEKLDCTDNSIWGTGKAEKFADDLYEKGVLADLEKAFAAREIKSLASKRKEDLQKITFLSRDISQQFGINLHMYSSLSVADLVKKILNCDRDFLQTPSVVEFLSKSEIIEVSVNLARNYAPYSTDWEGVRNLEDAKPPEKDPNDLQRADQIYLQLMVNLESYWGSRMRALTVVTSYEREYNELLAKLRKVDKAVSALQESDNLRNVFNVILAVGNFMNDTSKQAQGFKLSTLQRLTFIKDTTNSMTFLNYVEKIVRLNYPSFNDFLSELEPVLDVVKVSIEQLVNDCKDFSQSIVNVERSVEIGNLSDSSKFHPLDKVLIKTLPVLPEARKKGDLLEDEVKLTIMEFESLMHTYGEDSGDKFAKISFFKKFADFINEYKKAQAQNLAAEEEERLYIKHKKIVEEQQK | soluble
5 | MGSDKIHHHHHHMVNQNQWRQWGCKVIDIEKAALEHLYQFVDSDAFSQACELILQCKGKVIVMGMGKSGHIGNKISATLASTGTPAFFVHPGEASHGDLGALAKEDIILAISNSGESSEILTLLPVIQRMGVPVIAITGKPESNMAKLAKIHLCIQVPEEACPLGLAPTSSTTATLVMGDALAVALLQAKGFTQDDFALSHPGGSLGRKLLLKVSDVMHQDDRLPCVPHDICITEALYEISKKGLGMTAVVDANQCLVGIFTDGDLRRVIDAEVNLRTTPIEQVMTKNCVTTTAGILAAQALQVMESKNINGLIVVNEQQQPIGALNMLDMVKAGVI | not soluble
6 | MITMKHVILVGDGMADYPLDELDGKTPLQVADKPNMDQLAGMGACGLLRTVPEGMEAGSDVANLSIMGYDPRRYYTGRGPLEAASIGVELGDDDVAFRCNLINADERIVDFNAGHIETAEASSLIDALNHELETRGRFYAGVSYRNLFVIEGRGYTSVRVEPPHDIVGESVAAHLPSGSEEADHIRELMLESAGVLRSHEVNLKRESMGKRPATMIWLWGQGLRPSMEPFSERYGIRGATITAVDLIKGLGVYAGLENIHVPGATGYLDTDYRAKGRYAAGALEEYDFLYVHVEAPDEAGHAGDAEEKIRAIENIDRFVLGRLLDALSDHEHRIAVLPDHPTPIEIRTHVPDPVPCILAGDGVDADQVKSYDEFTVREGSLGTWEAHRLMEIMMDPAARLRQLEHHHHHH | not soluble
7 | MAHHHHHHMLVFRRNFSRFINNNTPKRGVRKVLHKNVTQYGKYTPNSNIVNQQNDNNKLVRGGGGLLSTFYESFIYGCGFFLSNRLLDQIFGPRTYDSFSNNMDYSNENSGGQAPDNYNSYPSENLNNNDPTINDNDFQQDIGLDDDTFDF | not soluble
8 | MTQTVKLDILSDPICPWCYIGKTQLDKALAAIPDHPFVIEWHPFQLNPDMAPEGMDRREYLERKFGGKEGAVRAYAPVVEHAEKAGLAIDFEAMQRTPNTLDAHRLIHWAGVEGKQTEAVDALFAAYFTEGRDIGDAEVLADIADSIGMDAAVVLKLLKSDADRDDIAKRDSHSREMGVSSVPTFIVANQHAVPGAQPPELWEQVIREIMSQIETTSA | not soluble
9 | MVSTLKRDEALFELIALEEKRQREGLELIASENFVSKQVREAVGSVLTNKYAEGYPGARYYGGCEVIDRVESLAIERAKALFGAAWANVQPHSGSQANMAVYMALMEPGDTLMGMDLAAGGHLTHGSRVNFSGKLYKVVSYGVRPDTELIDLEEVRRLALEHRPKVIVAGASAYPRFWDFKAFREIADEVGAYLVVDMAHFAGLVAAGLHPNPLPYAHVVTSTTHKTLRGPRGGLILSNDPELGKRIDKLIFPGIQGGPLEHVIAGKAVAFFEALQPEFKEYSRLVVENAKRLAEELARRGYRIVTGGTDNHLFLVDLRPKGLTGKEAEERLDAVGITVNKNAIPFDPKPPRVTSGIRIGTPAITTRGFTPEEMPLVAELIDRALLEGPSEALREEVRRLALAHPMP | soluble
10 | MQTNLLSRPTSAKSTSMSDKINHPQLCQWLESVAISRDKQAFTHLFQFFAPKILRIARGKFPNEAQANEVVQDTMSNVWRKAHLYNQDKGAATTWVYTVMRNVTFDMLRKIQGNKEDNLSDDIWPIAESMSIENEIFDDHLEHANLLSVIEELPQAQQDVVKGFYFREMSQEQLAVHLHLPLGTVKSRLRLALGKLKVQLGEKHD | not soluble
11 | MSLKIGKIVSVNFNQFRVKISSEIRGNSVNLAGTVYYFGNIGSYLKTTNSVGEQLICEVMSIFDSDTKLDSAAYDFDSNRELLLKPIGTITRDDRFNLGVGIFPGIYSEVNVVTFEDMELILQTGKDKELSKAIHQSFFLGESKNLINYPIDISINSFFNIHSAVLGNSGSGKSNTIAHIIQEIHKKKNNSAIGSRILIFDVNGEYKNAFTGHEISPYIKVRLLKPNIEATEDGVEPFYLPHFLMNIDEWSSFLMATDATQRPFWDKVLQESYKFYMIATHEGDDRQKLINYLRFKICNLIHILQAQGDSDTAIITTAQGILYGILTLIEMDDDLQRACQQEGVLQDLHDLNASEGHHHHHH | not soluble
12 | STEDSVKAVKRAADDDPHTETEHEDKKLKTDQEERKYPKKKVALLMAYSGKGYYGMQRNARNSQFKTIEDELVTALVGARCIPEGHAEEMKKMSFQRSARTDKGVSAVGRVVSLKVWMIENILEKINAHLPPRIRVLGCKRVTGGFNSKNNCYARTYSYMLPTVAFSPKDYNQEDTSFRLTSDTLQTVNRLFCLYKGTHNFHNFTSQKGHRDPSAMRYITHMSCGEPFIRKDVEFAVITVRGQSFMMHQIRKMIGLVIAVVKGYVDEGVMEKSWGEEKVGVSKAPGLGLVLERVHFDGYNKRFGGDGIHETLEWTEQEEAIADFKEKHIYPTIVDTELNERSMVNWMTSLCIHDFEETATGNQDRKDDDEDGSASD | soluble
13 | MPSNPQQSSRATPDRPSGSDESVIVERIYKAVMEQRLAPKTKLSEARLCETFGVGRMRVRRALLLLSSQGIIELQSNRGAYVACPDTAEANEVFAARMLIEPPLVRQLAQSSGNIDLTILTEHIALEDAARERKERTEIIRLSGEFHTKLAQATGNKFIFRMMRELVTRTSLIVGLFGSSENASCPDDEHNNILKAIQSQDPEMAETLLISHLNHIQNGLDMDMRQVPQDDLAAILGSD | not soluble
14 | MSLKNARLHVINPDEVATSVLFRLLAPTGIESRHYPCAEDFLNQYQANGPACLLVDMLLPDWGPLRLLGELKRRQIHHPCIFMSYRCEEQTLMELLEQQAFAFIKKPLNQVKLTELIQVAMGQDQKEGHHHHHH | not soluble
15 | MMEMLVDQGTDASSSASTSTSSVSRFGADTFMNTPDDVMMNDDMEPIPRDRCNTWPMRRPQLEPPLNSSPIIHEQIPEEDADLYGSNEQCGQLGGASSNGSTAMLHTPDGSNSHQTSFPSDFRMSESPDDTVSGKKTTTRRNAWGNMSYAELITTAIMASPEKRLTLAQVYEWMVQNVPYFRDKGDSNSSAGWKNSIRHNLSLHSRFMRIQNEGAGKSSWWVINPDAKPGRNPRRTRERSNTIETTTKAQLEKSRRGAKKRIKERALMGSLHSTLNGNSIAGSIQTISHDLYDDDSMQGAFDNVPSSFRPRTQSNLSIPGSSSRVSPAIGSDIYDDLEFPSWVGESVPAIPSDIVDRTDQMRIDATTHIGGVQIKQESKPIKTEPIAPPPSYHELNSVRGSCAQNPLLRNPIVPSTNFKPMPLPGAYGNYQNGGITPINWLSTSNSSPLPGIQSCGIVAAQHTVASSSALPIDLENLTLPDQPLMDTMDVDALIRHELSQAGGQHIHFDL | not soluble
16 | MKIIVQKFGGTSVKDDKGRKLALGHIKEAISEGYKVVVVVSAMGRKGDPYATDSLLGLLYGDQSAISPREQDLLLSCGETISSVVFTSMLLDNGVKAAALTGAQAGFLTNDQHTNAKIIEMKPERLFSVLANHDAVVVAGFQGATEKGDTTTIGRGGSDTSAAALGAAVDAEYIDIFTDVEGVMTADPRVVENAKPLPVVTYTEICNLAYQGAKVISPRAVEIAMQAKVPIRVRSTYSNDKGTLVTSHHSSKVGSDVFERLITGIAHVKDVTQFKVPAKIGQYNVQTEVFKAMANAGISVDFFNITPSEIVYTVAGNKTETAQRILMDMGYDPMVTRNCAKVSAVGAGIMGVPGVTSKIVSALSEKEIPILQSADSHTTIWVLVHEADMVPAVNALHEEFELSK | soluble
17 | MPFHIGSGCLPAIISNRRIYRIAWSDTPPEMSSWEKMKEFFCSTHQAEALECIWTICHPPAGTTREDVVSRFELLRTLAYDGWEENIHSGLHGENYFCILDEDSQEILSVTLDDVGNYTVNCQGYSETHHLTMATEPGVERTDITYNLTSDIDAAAYLEELKQNPIINNKIMNPVGQCESLMTPVSNFMNEKGFDNIRYRGIFIWDKPTEEIPTNHFAVVGNKEGKDYVFDVSAHQFENRGMSNLNGPLILSADEWVCKYRMATRRKLIYYTDFSNSSIAANAYDALPRELESESMAGKVFVTSPRWFNTFKKQKYSLIGKM | not soluble
